Reference: article PMC9352680, “A comprehensive thermodynamic model for RNA binding by the Saccharomyces cerevisiae Pumilio protein PUF4”

T1: PUF4 RNA-binding domain (Saccharomyces cerevisiae, UniProt P25339 537-888)
T1 sequence: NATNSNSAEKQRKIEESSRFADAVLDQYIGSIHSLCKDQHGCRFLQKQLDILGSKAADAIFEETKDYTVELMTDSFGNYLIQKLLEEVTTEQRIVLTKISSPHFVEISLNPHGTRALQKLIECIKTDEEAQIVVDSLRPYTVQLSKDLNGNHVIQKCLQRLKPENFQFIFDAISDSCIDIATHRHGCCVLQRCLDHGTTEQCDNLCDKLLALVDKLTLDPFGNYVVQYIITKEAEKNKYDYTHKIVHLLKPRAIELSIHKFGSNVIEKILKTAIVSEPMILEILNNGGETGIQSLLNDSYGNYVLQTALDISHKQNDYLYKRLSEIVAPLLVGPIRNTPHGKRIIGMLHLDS


Biological target: T1, PUF4 RNA-binding domain
Assay: Mg; RNA-MaP; 20 mM Na-HEPES pH 7.4, 30 mM KOAc, 0.75 mM MgCl2, 0.1% Tween-20, 5% glycerol, 0.1 mg/mL BSA, 2 mM DTT; 25 C; 0.0125-409.6 nM protein
Settings: tags: N-His6-TEV cleaved; C-SNAP kept, Cy3B-labelled; label: tethered on chip by stalled RNA polymerase

| Binder | Kd |
| --- | --- |
| UCUCUUUGUAGCUAUCUCUU (ssRNA) [Ib_S1_P3E.1_K3.1_C3.1_H3.1_A3.1_[T5G]_[A6C]_F3.1_T3.1] | 819 nM |
| UCUCUUUGUAGUUAUCUCUU (ssRNA) [Ib_S1_P3E.1_K3.1_C3.1_H3.1_A3.1_[T5G]_[A6T]_F3.1_T3.1] | 1020 nM |
| Ic_S2_P4E.1_K4.1_C4.1_H4.1_A4.1_[T5C]_[A6T]_[T7A]_F4.1_[A9C]_T4.1 (ssRNA) RNA: UUUGAUUAAUAUGAUAUCGUUCUUUCUUGUACUAUCUUCUUUCUCGAUAUCAUAUUAAUCUUU | 9.16 nM |
| Ic_S2_P4E.1_K4.1_C4.1_H4.1_A4.1_[T5C]_[T7C]_F4.1_[A9G]_T4.1 (ssRNA) RNA: UUUGAUUAAUAUGAUAUCGUUCUUUCUUGUACACUGUUCUUUCUCGAUAUCAUAUUAAUCUUU | 2.73 nM |
| Ic_S2_P4E.1_K4.1_C4.1_H4.1_A4.1_[T5C]_[A6T]_F4.1_[T8A]_[A9C]_T4.1 (ssRNA) RNA: UUUGAUUAAUAUGAUAUCGUUCUUUCUUGUACUUACUUCUUUCUCGAUAUCAUAUUAAUCUUU | 85.2 nM |
| Ic_S2_P4E.1_K4.1_C4.1_H4.1_A4.1_[T5A]_[A6C]_[T7C]_F4.1_[T8C]_[A9C]_T4.1 (ssRNA) RNA: UUUGAUUAAUAUGAUAUCGUUCUUUCUUGUAACCCCUUCUUUCUCGAUAUCAUAUUAAUCUUU | 582 nM |
| Ic_S2_P4E.1_K4.1_C4.1_H4.1_A4.1_[T5A]_[A6C]_[T7C]_F4.1_[T8A]_[A9C]_T4.1 (ssRNA) RNA: UUUGAUUAAUAUGAUAUCGUUCUUUCUUGUAACCACUUCUUUCUCGAUAUCAUAUUAAUCUUU | 1570 nM |
| Ic_S2_P4E.1_K4.1_C4.1_H4.1_A4.1_[T5C]_[A6T]_F4.1_[T8G]_[A9G]_T4.1 (ssRNA) RNA: UUUGAUUAAUAUGAUAUCGUUCUUUCUUGUACUUGGUUCUUUCUCGAUAUCAUAUUAAUCUUU | 430 nM |
| Ic_S2_P4E.1_K4.1_C4.1_H4.1_A4.1_[T5C]_F4.1_[T8C]_[A9G]_T4.1 (ssRNA) RNA: UUUGAUUAAUAUGAUAUCGUUCUUUCUUGUACAUCGUUCUUUCUCGAUAUCAUAUUAAUCUUU | 22.3 nM |
| Ic_S2_P4E.1_K4.1_C4.1_H4.1_A4.1_[T5C]_[A6T]_F4.1_[T8A]_[A9T]_T4.1 (ssRNA) RNA: UUUGAUUAAUAUGAUAUCGUUCUUUCUUGUACUUAUUUCUUUCUCGAUAUCAUAUUAAUCUUU | 13.6 nM |
| Ic_S2_P4E.1_K4.1_C4.1_H4.1_A4.1_[T5C]_[A6T]_F4.1_[A9T]_T4.1 (ssRNA) RNA: UUUGAUUAAUAUGAUAUCGUUCUUUCUUGUACUUUUUUCUUUCUCGAUAUCAUAUUAAUCUUU | 9.78 nM |
| Ic_S2_P4E.1_K4.1_C4.1_H4.1_A4.1_[T5A]_[A6C]_[T7A]_F4.1_[T8A]_[A9T]_T4.1 (ssRNA) RNA: UUUGAUUAAUAUGAUAUCGUUCUUUCUUGUAACAAUUUCUUUCUCGAUAUCAUAUUAAUCUUU | 45.2 nM |
| Ic_S2_P4E.1_K4.1_C4.1_H4.1_A4.1_[T5C]_[A6T]_F4.1_[T8A]_T4.1 (ssRNA) RNA: UUUGAUUAAUAUGAUAUCGUUCUUUCUUGUACUUAAUUCUUUCUCGAUAUCAUAUUAAUCUUU | 22.9 nM |
| Ic_S2_P4E.1_K4.1_C4.1_H4.1_A4.1_[T5A]_[A6C]_[T7G]_F4.1_[T8C]_T4.1 (ssRNA) RNA: UUUGAUUAAUAUGAUAUCGUUCUUUCUUGUAACGCAUUCUUUCUCGAUAUCAUAUUAAUCUUU | 747 nM |
| Ic_S2_P4E.1_K4.1_C4.1_H4.1_A4.1_[T5A]_[A6C]_[T7G]_F4.1_[T8C]_[A9T]_T4.1 (ssRNA) RNA: UUUGAUUAAUAUGAUAUCGUUCUUUCUUGUAACGCUUUCUUUCUCGAUAUCAUAUUAAUCUUU | 190 nM |
| Ic_S2_P4E.1_K4.1_C4.1_H4.1_A4.1_[T5A]_[A6C]_[T7C]_F4.1_[A9T]_T4.1 (ssRNA) RNA: UUUGAUUAAUAUGAUAUCGUUCUUUCUUGUAACCUUUUCUUUCUCGAUAUCAUAUUAAUCUUU | 24.6 nM |
| Ic_S2_P4E.1_K4.1_C4.1_H4.1_A4.1_[T5A]_[A6C]_[T7C]_F4.1_[T8C]_[A9G]_T4.1 (ssRNA) RNA: UUUGAUUAAUAUGAUAUCGUUCUUUCUUGUAACCCGUUCUUUCUCGAUAUCAUAUUAAUCUUU | 742 nM |
| Ic_S2_P4E.1_K4.1_C4.1_H4.1_A4.1_[T5C]_[A6T]_F4.1_[T8C]_[A9T]_T4.1 (ssRNA) RNA: UUUGAUUAAUAUGAUAUCGUUCUUUCUUGUACUUCUUUCUUUCUCGAUAUCAUAUUAAUCUUU | 24.4 nM |
| Ic_S2_P4E.1_K4.1_C4.1_H4.1_A4.1_[T5C]_[T7A]_F4.1_[T8C]_[A9G]_T4.1 (ssRNA) RNA: UUUGAUUAAUAUGAUAUCGUUCUUUCUUGUACAACGUUCUUUCUCGAUAUCAUAUUAAUCUUU | 55.1 nM |
| Ic_S2_P4E.1_K4.1_C4.1_H4.1_A4.1_[T5A]_[A6C]_[T7G]_F4.1_[T8G]_[A9T]_T4.1 (ssRNA) RNA: UUUGAUUAAUAUGAUAUCGUUCUUUCUUGUAACGGUUUCUUUCUCGAUAUCAUAUUAAUCUUU | 1410 nM |
| Ic_S2_P4E.1_K4.1_C4.1_H4.1_A4.1_[T5C]_[T7G]_F4.1_[A9T]_T4.1 (ssRNA) RNA: UUUGAUUAAUAUGAUAUCGUUCUUUCUUGUACAGUUUUCUUUCUCGAUAUCAUAUUAAUCUUU | 9.39 nM |
| Ic_S2_P4E.1_K4.1_C4.1_H4.1_A4.1_[T5C]_[T7G]_F4.1_[T8C]_T4.1 (ssRNA) RNA: UUUGAUUAAUAUGAUAUCGUUCUUUCUUGUACAGCAUUCUUUCUCGAUAUCAUAUUAAUCUUU | 206 nM |
| Ic_S2_P4E.1_K4.1_C4.1_H4.1_A4.1_[T5C]_[T7C]_F4.1_[T8C]_T4.1 (ssRNA) RNA: UUUGAUUAAUAUGAUAUCGUUCUUUCUUGUACACCAUUCUUUCUCGAUAUCAUAUUAAUCUUU | 14 nM |
